Source: patent publication US20250041325A1

Molecular target: CXCR4 receptor on the surface of RIL-175 murine HCC cells (murine (endogenous on murine RIL-175 HCC cells)) (UniProt P70658)
Test: cell-based or functional assay

Sequence of UniProt P70658 (P70658 whole entry): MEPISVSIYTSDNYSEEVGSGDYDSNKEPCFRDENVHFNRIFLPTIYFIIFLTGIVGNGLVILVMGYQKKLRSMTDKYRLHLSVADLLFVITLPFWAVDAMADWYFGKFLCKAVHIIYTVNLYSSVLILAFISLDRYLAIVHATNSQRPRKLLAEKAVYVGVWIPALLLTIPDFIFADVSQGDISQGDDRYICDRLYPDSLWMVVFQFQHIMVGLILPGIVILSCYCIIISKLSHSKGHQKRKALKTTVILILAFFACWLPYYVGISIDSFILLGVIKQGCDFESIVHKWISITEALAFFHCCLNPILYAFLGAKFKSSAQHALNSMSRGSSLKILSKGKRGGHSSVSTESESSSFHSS

Substance: CTCE-9908 peptide conjugated to DSPE-PEG and displayed on polymer-lipid hybrid mRNA nanoparticles (DSPE-PEG-CTCE; CTCE-mRNA NPs)
- cellular uptake in RIL-175 cells (flow cytometry of EGFP), 5% CTCE-EGFP NPs versus 5% SCP-EGFP NPs (scrambled peptide, SEQ ID NO: 2): > 15 fold
- mean fluorescence intensity of EGFP in transfected RIL-175 cells (flow cytometry), CTCE-EGFP NPs versus SCP-EGFP NPs: 4.5 fold
